Measured values published in the Human Domainome abundance scans (Beltran et al. 2025).
± gives the uncertainty stated by the source.

B1: Protein piccolo, residues 1058 to 1114; numbered along this chain, Q9Y6V0 (parent)
chain: TCPLCKTELNIGSKDPPNFNTCTECKNQVCNLCGFNPTPHLTEIQEWLCLNCQTQRA

Variants of: B1
Test: abundance fitness (aPCA) (normalised: wild type 0, dead -1); higher = more abundant; growth selection in yeast, the domain comes from the species named
Conditions: Homo sapiens

Abundance fitness: each site, then its substitutions
P16: K -0.248 ± 0.14, N -0.229 ± 0.26, Y -0.056 ± 0.18, G -0.354 ± 0.12, R -0.179 ± 0.1, I -0.173 ± 0.16
I44: P 0.126 ± 0.19, Q 0.074 ± 0.2, T -0.273 ± 0.17, G 0.02 ± 0.14, E 0.146 ± 0.16, F 0.155 ± 0.18, V -0.014 ± 0.15, Y -0.274 ± 0.22
N27: R 0.106 ± 0.096, P -0.317 ± 0.14, S 0.12 ± 0.12, D -0.094 ± 0.12, V 0.163 ± 0.09, Q 0.112 ± 0.15, A 0.151 ± 0.11
N51: P -0.284 ± 0.17, F -0.306 ± 0.12, A -0.015 ± 0.16
H40: L -0.02 ± 0.088, T 0.185 ± 0.14, K -0.06 ± 0.14, E -0.065 ± 0.14, A 0.076 ± 0.11, S 0.156 ± 0.094, R 0.093 ± 0.087
T7: C -0.56 ± 0.1, G -0.011 ± 0.072, S -0.09 ± 0.081, W -0.797 ± 0.093, R -0.056 ± 0.075, L -0.15 ± 0.076, K 0.043 ± 0.12
P17: L -0.084 ± 0.099, S -0.175 ± 0.11, K 0.127 ± 0.18, E 0.137 ± 0.15, F -0.245 ± 0.12, R -0.106 ± 0.12
N36: I -0.129 ± 0.14, G 0.038 ± 0.087, T -0.28 ± 0.14, C -0.054 ± 0.12, E 0.099 ± 0.12, S -0.12 ± 0.095, Q -0.011 ± 0.15, D -0.093 ± 0.16
F35: V 0.108 ± 0.092, A 0.139 ± 0.1, L 0.175 ± 0.08, D 0.218 ± 0.14, N 0.066 ± 0.15, G 0.175 ± 0.096
C49: D -0.597 ± 0.2, G -0.934 ± 0.14, N -0.618 ± 0.28, L -1 ± 0.14, T -1.06 ± 0.26
E43: Y -0.443 ± 0.32, K -0.003 ± 0.27, Q -0.167 ± 0.18, L -0.398 ± 0.13, A -0.048 ± 0.16, N -0.123 ± 0.38, R 0.11 ± 0.13, D -0.096 ± 0.19, G 0.003 ± 0.11, H -0.671 ± 0.36
C22: D -0.817 ± 0.2, A -0.647 ± 0.11, Y -0.899 ± 0.21, H -0.567 ± 0.15, K -0.818 ± 0.24, P -0.938 ± 0.17, V -0.733 ± 0.099
I11: P 0.11 ± 0.14, M 0.039 ± 0.15, C -0.133 ± 0.1, T -0.099 ± 0.15, Y 0.086 ± 0.15
C33: Y -1.26 ± 0.17, F -0.92 ± 0.16, K -0.822 ± 0.18, W -1.01 ± 0.12, T -0.952 ± 0.14
K14: Q -0.092 ± 0.23, I -0.653 ± 0.21, H 0.056 ± 0.18, C -0.643 ± 0.13, A -0.079 ± 0.1, V 0.039 ± 0.091, Y -0.554 ± 0.21, G 0.021 ± 0.084, S -0.126 ± 0.1
P39: S 0.069 ± 0.093, F 0.025 ± 0.16, Y -0.131 ± 0.14, D -0.117 ± 0.18, K 0.193 ± 0.15, I -0.013 ± 0.17, R 0.008 ± 0.087, W -0.303 ± 0.11, N -0.214 ± 0.21, H -0.393 ± 0.33
K26: Y 0.148 ± 0.16, S 0.119 ± 0.1, I 0.006 ± 0.18, G 0.139 ± 0.11, F -0.025 ± 0.12, H -0.253 ± 0.29, P -0.148 ± 0.14, R 0.072 ± 0.11
T42: P -0.137 ± 0.13, L -0.091 ± 0.088, S -0.011 ± 0.11, C 0.064 ± 0.14, Y -0.301 ± 0.19, E -0.122 ± 0.16, I -0.105 ± 0.18, K -0.056 ± 0.18
Q28: I -0.579 ± 0.21, W -0.115 ± 0.11, A 0.09 ± 0.13, Y -0.179 ± 0.18, V -0.033 ± 0.1, D -0.398 ± 0.26
T54: M -0.602 ± 0.17, C -0.182 ± 0.24, Y -0.369 ± 0.23, H -0.076 ± 0.29, N 0.296 ± 0.32
L9: P -0.197 ± 0.096, N -0.174 ± 0.16, A 0.032 ± 0.086, W -0.419 ± 0.092, D -0.138 ± 0.13, I -0.098 ± 0.14, V -0.056 ± 0.077
N18: E -0.104 ± 0.15, P -0.047 ± 0.16, A -0.199 ± 0.11, H -0.1 ± 0.17, V -0.348 ± 0.096, F -0.199 ± 0.16, W -0.346 ± 0.12, G -0.098 ± 0.1, Q -0.07 ± 0.12, C -0.219 ± 0.14, Y -0.094 ± 0.18, K -0.032 ± 0.17
F19: E -0.153 ± 0.2, A -0.114 ± 0.15, Y 0.032 ± 0.26, K -0.737 ± 0.42
N20: Q 0.094 ± 0.15, R 0.078 ± 0.08, D 0.186 ± 0.19, F -0.051 ± 0.13
W47: M -0.06 ± 0.17, G 0.056 ± 0.15, I -0.049 ± 0.38, H -0.135 ± 0.49, E 0.031 ± 0.18
N31: L 0.072 ± 0.083, W -0.19 ± 0.097, D 0.003 ± 0.26, E 0.148 ± 0.15, G 0.028 ± 0.096
S13: R -0.264 ± 0.079, I -0.21 ± 0.16, H -0.079 ± 0.21, E -0.257 ± 0.13, D -0.463 ± 0.16
L41: D 0.004 ± 0.19, A 0.117 ± 0.11, R 0.2 ± 0.097, P -0.037 ± 0.14, C 0.004 ± 0.14, F 0.149 ± 0.12
T1: M -0.031 ± 0.18, I -0.024 ± 0.22, P -0.239 ± 0.36, R -0.21 ± 0.25
N10: K 0.2 ± 0.12, Q -0.005 ± 0.12, A 0.041 ± 0.096
T21: W 0.106 ± 0.12, K 0.198 ± 0.15, F -0.109 ± 0.16, G -0.053 ± 0.099, P -0.169 ± 0.14, S 0.083 ± 0.11, Y 0.135 ± 0.18, A 0.004 ± 0.1
G12: F -0.203 ± 0.21, P 0.027 ± 0.13, Q -0.3 ± 0.18, Y -0.137 ± 0.18, H -0.182 ± 0.39, W -0.326 ± 0.091
L4: R -0.054 ± 0.092, H 0.054 ± 0.2, D 0.17 ± 0.13, V -0.308 ± 0.095, Y -0.088 ± 0.14, F -0.376 ± 0.15
Q53: G -0.016 ± 0.1, D 0.099 ± 0.22, I -0.25 ± 0.22, V -0.256 ± 0.12, W -0.383 ± 0.12, L -0.386 ± 0.11
L32: Y -0.218 ± 0.17, K 0.172 ± 0.16, N -0.176 ± 0.24, A 0.124 ± 0.1, R 0.175 ± 0.087
C2: F -1.11 ± 0.2, D -0.536 ± 0.18, S -0.687 ± 0.13, P -1.1 ± 0.19, A -1.3 ± 0.23, H -0.834 ± 0.26, R -0.991 ± 0.19
L48: H -0.177 ± 0.23, C 0.164 ± 0.15, Y -0.112 ± 0.17, T -0.089 ± 0.14, I -0.105 ± 0.22, F 0.09 ± 0.13, K -0.245 ± 0.18, W -0.061 ± 0.13, R -0.079 ± 0.11, D -0.297 ± 0.18, G -0.355 ± 0.12, A -0.051 ± 0.13
T23: F 0.288 ± 0.15, C 0.041 ± 0.12, H -0.18 ± 0.3, V 0.067 ± 0.1, S 0.003 ± 0.1
C25: L -0.846 ± 0.082, W -0.879 ± 0.11, G -0.682 ± 0.083, D -0.834 ± 0.18, P -0.577 ± 0.1, T -0.606 ± 0.13, K -0.808 ± 0.24, Q -0.644 ± 0.15
G34: L 0.043 ± 0.087, T -1.02 ± 0.15, V -0.037 ± 0.094, A -0.083 ± 0.15, R -0.102 ± 0.099, K -0.794 ± 0.19
E24: F -0.269 ± 0.099, L -0.363 ± 0.077, Q -0.135 ± 0.11, P -0.517 ± 0.1, T 0.034 ± 0.099, D 0.008 ± 0.14
P3: Q -0.506 ± 0.19, R -0.175 ± 0.084, C 0.148 ± 0.14
P37: L -0.023 ± 0.094, M -0.098 ± 0.12, Q 0.097 ± 0.17, G 0.039 ± 0.087, K -0.054 ± 0.17, T 0.079 ± 0.18, Y -0.451 ± 0.28, D 0.247 ± 0.3
Q45: K 0.268 ± 0.28, G 0.037 ± 0.12, P -0.141 ± 0.18, D -0.254 ± 0.39, T -0.202 ± 0.15, Y 0.047 ± 0.2, L -0.093 ± 0.1, V 0.046 ± 0.14, H -0.357 ± 0.23, E -0.38 ± 0.31
C30: Q -0.619 ± 0.15, F -0.991 ± 0.14, L -0.971 ± 0.11, N -0.612 ± 0.18, D -0.499 ± 0.18, V -0.594 ± 0.099, W -1 ± 0.14, G -0.584 ± 0.1, R -0.541 ± 0.099
C52: W -1.14 ± 0.32, S -0.709 ± 0.13, T -0.842 ± 0.21
K6: T -0.107 ± 0.097, P 0.104 ± 0.1, V -0.215 ± 0.074, R -0.283 ± 0.073, A -0.097 ± 0.085
E46: V -0.033 ± 0.12, A -0.176 ± 0.13, F -0.363 ± 0.17
C5: L -1.17 ± 0.087, M -0.927 ± 0.13, K -0.63 ± 0.18, D -0.606 ± 0.095, E -0.812 ± 0.16, T -0.872 ± 0.082
D15: Y 0.124 ± 0.17, I 0.01 ± 0.16, A -0.138 ± 0.12, H -0.239 ± 0.46, E -0.248 ± 0.15
V29: T -0.118 ± 0.073, N -0.199 ± 0.077, D -0.32 ± 0.092, M -0.039 ± 0.1, Q -0.212 ± 0.099, F -0.217 ± 0.075, I -0.241 ± 0.078, W -0.131 ± 0.097
L50: W -0.215 ± 0.12, N 0.019 ± 0.14, F -0.25 ± 0.14
E8: I -0.153 ± 0.11, W -0.517 ± 0.084, F -0.431 ± 0.097, L -0.252 ± 0.071, Y -0.679 ± 0.14
